Laboratory results: patent US20230310559A1, “Use of Amylase or Maltose to Treat or Prevent Neurodegeneration” (St. Jude Children's Research Hospital, Inc., priority 2020, published 2023)
“Also recorded” adds a separate entry of the source.

Columns and labels:
[1] = test system: Huntingtin-polyQ72-GFP aggregates in the Drosophila retina; assay: Analysis of pathogenic Huntingtin-polyQ72-GFP aggregation in Drosophila retina; assay type: in vivo; conditions: transgenic overexpression in Drosophila retinas during aging, compared to controls
Experimental: (§1) Cloning of Myokines and Fly Transgenesis. The coding sequences of Drosophila CG4666, CG8093, Amyrel, Ag5r2, Amy-d, and Amy-p were generated as synthetic minigenes and cloned into the pUASTattB vector with the EcoRI and KpnI restriction enzymes. These plasmids were then injected into attP40 and/or attP2 by using the site-specific phiC31 integrase (Markstein, et al. (2008) Nat. Genet. 40(4):476-483) to generate transgenic flies.
Analysis of Pathogenic Huntingtin Aggregation. Pathogenic Huntingtin-polyQ72-GFP protein aggregates (Zhang, et al. (2010) Genetics 184(4):1165-79) were imaged with an epifluorescence microscope and the number and total area of protein aggregates estimated with CELLPROFILER™. This analysis was done with male flies after aging at 25° C. for 30 days, and/or aging at 29° C. for 20 days. A custom-made script was used for image analysis in CELLPROFILER™.
Analysis of Huntingtin-GFP Aggregates in Drosophila Eye. Frozen Drosophila was used for imaging of the eyes using ZEISS SteREO Discovery.V12 microscope at a specific exposure time and consistent settings. The acquired gray scale images were then analyzed for the area occupied by aggregates (Huntingtin-GFP specks) using CELLPROFILER™ 3.0.0 pipeline.

[2] = test system: Drosophila heads and thoraces; assay: Western blots of detergent-soluble and detergent-insoluble fractions of Drosophila heads and thoraces during aging; assay type: in vivo
Experimental: as §1
Western Blots of Detergent-Soluble and Detergent-Insoluble Fractions. Western blots for detergent-soluble and detergent-insoluble fractions were carried out as previously described (Demontis & Perrimon (2010) Cell 143(5):813-825). In brief, heads and thoraces were dissected from 30 male flies/sample and homogenized in ice-cold PBS with 1% TRITON™ X-100 containing protease and phosphatase inhibitors. Homogenates were centrifuged at 14,000 rpm at 4° C. and supernatants collected (TRITON™ X-100-soluble fraction). The remaining pellet was washed in ice-cold PBS with 1% TRITON™ X-100. The pellet was then resuspended in RIPA buffer containing 8M urea and 5% SDS, centrifuged at 14,000 rpm at 4° C., and the supernatant collected (TRITON™ X-100-insoluble fraction). Detergent-soluble and detergent-insoluble fractions were analyzed on 4-20% SDS-PAGE with anti-ubiquitin (Cell Signaling Technologies P4D1), anti-Ref(2)P/p62 (Abcam), anti-Atg8/GABARAP (Abcam), and/or anti-GFP (Cell Signaling Technologies) antibodies. Ponceau S staining, anti-Tubulin antibodies (Cell Signaling Technologies), and/or anti-actin antibodies were used as loading controls.
Soluble and Insoluble Protein Fractionation from Drosophila Tissues. Thoraces or heads were dissected from 30 male flies and homogenized in 100 μL ice-cold TRITON™ X-100 buffer (1% TRITON™ X-100 in PBS containing protease inhibitor and phosphatase inhibitor) for 5 minutes at highest speed. Homogenates were centrifuged at 14000 rpm at 4° C. for 10 minutes and supernatant collected (TRITON™ X-100-soluble fraction). The remaining pellet was washed in 400 μL of TRITON™ X-100 buffer, twice at 14000 rpm for 5 minutes at 4° C. The pellet was then resuspended in 100 μL 1× RIPA buffer containing 8M urea and 5% SDS at room temperature, centrifuged at 14000 rpm at 4° C. for 10 minutes, and supernatant was collected (TRITON™ X-100-insoluble fraction). Six μL of soluble/insoluble protein extracts were boiled with sample buffer containing DTT and separated by gel electrophoresis.

[3] = Maltose assays of fly hemolymph and bodies; assay type: in vivo, Drosophila; conditions: Amyrel overexpression, in comparison with isogenic controls
Experimental: Maltose Assays. Flies were decapitated and placed in a perforated 0.6 mL tube resting in a 1.5 mL tube, which was centrifuged at 1700 g for 6 minutes at 4° C. to collect the hemolymph ([…], et al. (2009) Cell Metab. 10:199-207). Equal volumes of hemolymph (1 μL) were used for subsequent determination of maltose levels. To avoid interference from eye pigments (Al-Anzi, et al. (2010) PLoS ONE 5(8):e12353), flies (n=10/biological replicate) were decapitated and homogenized with a Next Advance BULLET BLENDER® and 0.5-mm zirconium beads in 100 μL of maltose assay buffer (MAB). Body homogenates were then collected after centrifugation at maximum speed for 10 minutes to remove cuticle debris. Subsequently, the quantification of maltose concentration in the hemolymph and bodies was done with the maltose assay kit (Sigma-Aldrich), according to manufacturer's instructions. In brief, hemolymph and body homogenates were diluted 1:40 in MAB. […] After 1 hour, the absorbance was read at 570 nm with a Tecan Infinite 200 Pro. Blank (0 maltose standards) readings were subtracted from all readings. Maltose levels were calculated from the standard curve after subtracting the absorbance read in the absence of glucosidase treatment, which accounts for background glucose levels, from the absorbance read in duplicate samples treated with glucosidase.

[4] = Amylase activity assay of fly body homogenates; assay type: in vivo, Drosophila; conditions: Amyrel overexpression, in comparison with isogenic controls
Experimental: Amylase Activity Assay. Colorimetric detection of amylase activity was performed according to the manufacturer's instructions (Sigma-Aldrich). In brief, five flies were decapitated and placed on ice in a 1.5 ml tube. The decapitated bodies were homogenized in 150 μL of Amylase Assay Buffer (AAB). The homogenate was collected after high-speed centrifugation for 10 minutes. For this assay, 5 μL the body homogenate or standard was added to a well in a 96-well plate and brought up to 50 μL with AAB and water, respectively. A master reaction mix was made to conduct a colorimetric assay, and 100 μL was added to each well. The plate was mixed well using a horizontal shaker. After 2-3 minutes the absorbance was measured at 405 nm.

[5] = test system: Drosophila retina with mutant tau^V337M; assay: Age-related retinal degeneration induced by mutant tau V337M; assay type: in vivo; conditions: overexpression in Drosophila
[6] = test system: Drosophila; assay: Startle-induced negative geotaxis; assay type: in vivo; conditions: muscle-specific overexpression, compared to isogenic controls
Experimental: Startle-Induced Negative Geotaxis. Startle-induced negative geotaxis was carried out according to established methods. Specifically, flies were tapped and the number of flies that reached the top of the vial was scored after 20 seconds.

[7] = test system: Drosophila brains and retinas; assay: Whole-mount immunostaining of Drosophila brains and retinas (poly-ubiquitin protein aggregates); assay type: in vivo; conditions: muscle-specific overexpression with Mhc-Gal4 or Act88F-GS-Gal4, compared to isogenic controls
Experimental: Whole-Mount Immunostaining of Drosophila Brains and Retinas. The immunostaining of brains and retinas was carried out using established methods (Demontis & Perrimon (2009) Development 136(6):983-93; Demontis & Perrimon (2010) Cell 143(5):813-825). In brief, retinas and brains were dissected, fixed for 30 minutes in phosphate-buffered saline (PBS) with 4% paraformaldehyde and 0.2% TRITON⋅ X-100 at room temperature, washed for >3 times in PBS with 0.2% TRITON⋅ X-100 at room temperature, and immunostained overnight at 4° C. with rabbit anti-poly-ubiquitin (FK2; Enzo Life Sciences) and anti-Ref(2)P/p62 antibodies (Abeam). After washes with PBS with 0.2% TRITON⋅ X-100, the samples were incubated for 2 hours at room temperature with secondary antibodies and phalloidin conjugated to a fluorescent dye sold under the tradename ALEXA FLUOR® 635. The samples were subsequently washed, mounted in antifade medium and imaged on a Zeiss LSM 880 confocal microscope.

[8] = test system: Drosophila heads; assay: Head transcriptome of flies with muscle-specific Amyrel overexpression; assay type: in vivo

| Molecule | pathogenic huntingtin (Htt-Q72-GFP) aggregates, total area and number of speckles [1] | levels of polyubiquitinated proteins in heads ([2]; flies with pathogenic Huntingtin (Htt-polyQ120) expression in the retina, muscle-specific overexpression) | proteostasis in skeletal muscle ([2]; muscle-specific overexpression) | age-related accumulation of proteasome substrates (poly-ubiquitinated proteins, detergent-insoluble fractions) in head tissues ([2]; muscle-specific overexpression, 10, 30 and 60 days) | Atg8 conversion and levels (autophagy) ([2]; muscle-specific overexpression, heads) | circulating (hemolymph) maltose [3] | whole body maltose [3] | amylase activity [4] | age-related neurodegeneration (retinal degeneration, rough eye phenotype) induced by tau^V337M [5] | capacity for startle-induced negative geotaxis during aging [6] | percentage of flies unable to respond to stimulation, increase with aging [6] | amount of poly-ubiquitin protein aggregates in the retina and brain in old age [7] | induction of Hsp23 gene [8] [fold] | genes involved in proteostasis, including several chaperones and proteases ([8]; compared to isogenic controls) |
| --- | --- | --- | --- | --- | --- | --- | --- | --- | --- | --- | --- | --- | --- | --- |
| Amy-d: other Drosophila amylase, transgenic overexpression (protein, UniProt P81641 19-494, looked up) Alpha-amylase B: QFDTNYASGRSGMVHLFEWKWDDIAAECENFLGPNGYAGVQVSPVNENAVKDSRPWWERYQPISYKLETRSGNEEQFASMVKRCNAVGVRTYVDVVFNHMAADGGTYGTGGSTASPSSKSYPGVPYSSLDFNPTCAISNYNDANEVRNCELVGLRDLNQGNSYVQDKVVEFLDHLIDLGVAGFRVDAAKHMWPADLAVIYGRLKNLNTDHGFASGSKAYIVQEVIDMGGEAISKSEYTGLGAITEFRHSDSIGKVFRGKDQLQYLTNWGTAWGFAASDRSLVFVDNHDNQRGHGAGGADVLTYKVPKQYKMASAFMLAHPFGTPRVMSSFSFTDTDQGPPTTDGHNIASPIFNSDNSCSGGWVCEHRWRQIYNMVAFRNTVGSDEIQNWWDNGSNQISFSRGSRGFVAFNNDNYDLNSSLQTGLPAGTYCDVISGSKSGSSCTGKTVTVGSDGRASIYIGSSEDDGVLAIHVNAKL | reduced |  |  |  |  |  |  |  |  |  |  |  |  |  |
| Amy-p: other Drosophila amylase, transgenic overexpression (protein, UniProt P08144 19-494, looked up) Alpha-amylase A: QFDTNYASGRSGMVHLFEWKWDDIAAECENFLGPNGYAGVQVSPVNENAVKDSRPWWERYQPISYKLETRSGNEEQFASMVKRCNAVGVRTYVDVVFNHMAADGGTYGTGGSTASPSSKSYPGVPYSSLDFNPTCAISNYNDANEVRNCELVGLRDLNQGNSYVQDKVVEFLDHLIDLGVAGFRVDAAKHMWPADLAVIYGRLKNLNTDHGFASGSKAYIVQEVIDMGGEAISKSEYTGLGAITEFRHSDSIGKVFRGKDQLQYLTNWGTAWGFAASDRSLVFVDNHDNQRGHGAGGADVLTYKVPKQYKMASAFMLAHPFGTPRVMSSFSFTDTDQGPPTTDGHNIASPIFNSDNSCSGGWVCEHRWRQIYNMVAFRNTVGSDEIQNWWDNGSNQISFSRGSRGFVAFNNDNYDLNSSLQTGLPAGTYCDVISGSKSGSSCTGKTVTVGSDGRASINIGSSEDDGVLAIHVNAKL | reduced |  |  |  |  |  |  |  |  |  |  |  |  |  |
| Amyrel: a secreted amylase enzyme (Drosophila myokine), GENBANK Accession No. NP_477262.1, given by transgenic overexpression (protein, UniProt O18408 20-493, looked up) Alpha-amylase-related protein: QHNPHWWGNRNTIVHLFEWKWSDIAQECESFLGPRGFAGVQVSPVNENILSAGRPWWERYQPISYKLTTRSGNEEEFGDMVRRCNDVGVRIYVDVLLNHMSGDFDGVAVGTAGTEAEPSKKSFPGVPYTAQDFHPTCEITDWNDRFQVQQCELVGLKDLDQSSDWVRSKLIEFLDHLIELGVAGFRVDAAKHMASEDLEYIYSSLSNLNIDHGFPHNSRPFIFQEVIDHGHETVSRDEYKDLGAVTEFRFSEEIGNAFRGNNALKWLQSWGTDWGFLPSGQALTFVDNHDNQRDAGAVLNYKSPRQYKMATAFHLAYPYGISRVMSSFAFDDHDTPPPQDAQERIISPEFDADGACVNGWICEHRWRQIYAMVGFKNAVRDTEITGWWDNGDNQISFCRGNKGFLAINNNLYDLSQDLNTCLPAGTYCDVISGSLIDGSCTGKSVTVNENGYGYIHIGSDDFDGVLALHVDAKV | less so; also recorded: decrease in an age-dependent manner | reduced the levels of polyubiquitinated proteins | did not regulate proteostasis in skeletal muscle | reduced the age-related accumulation of proteasome substrates; also recorded: reduced the age-related increase in polyubiquitinated proteins | not significantly modulated | increase | increase | increase | largely prevented | preserves the capacity for negative geotaxis | less so | significantly reduced | > 8 | induced |
